According to patent US10500274B2, “Methods for reducing viral load in HIV-1 infected patients” (CytoDyn Inc., priority 2008, dated 2019):
Where “and” joins values, the source holds several entries; their conditions need not be identical. Identical values can stand only once. Like-named read-outs stand apart in the source and are kept apart here.

Key:
R5 HIV-1 = test: Phase 2 trial of subcutaneous PRO 140: HIV-1 RNA; format: in vivo, human
Procedure: More particularly, dosing comprises 162 mg q1wx3, 324 mg q1wx3, 324 mg q2wx2. Subcutaneous PRO 140 offers a long-acting, self-administered therapy for HIV infection.
(§1) Subjects were followed for a total of 58 days for safety and antiviral effects. Entry criteria included: HIV-1 RNA >5,000 copies/mL, R5 virus, […], no antiretroviral therapy <12 weeks.

[1] = design: species or system human; details: in vivo, sc
Text: as §1

[2] = human, in vivo; for Peak serum concentration (average) / mean time to last observation (tlast) / volume of distribution (average): iv
Text: PK metrics were estimated using non-compartmental methods.

[3] = Phase 1b clinical study: safety, anti-PRO 140 antibodies, plasma RANTES
Text: Subjects were ≥18 years of age with plasma HIV-1 RNA ≥5,000 copies/mL, R5-tropic HIV-1 only, CD4^+ cells ≥250/μL with no documented nadir ≤200/μL and no antiretroviral therapy for at least 3 months. Major exclusion criteria included pregnancy, history of AIDS-defining illness, the presence of X4-tropic HIV-1, and acute or symptomatic viral hepatitis within the prior 6 months.
Evaluations of clinical subjects included physical examinations, 12-lead electrocardiograms, vital signs, concomintant medications, and adverse events reporting. Clinical laboratory tests evaluated serum chemistries, hematology and urinalysis.
Samples below the LLOQ were assigned a value of zero. PK metrics were estimated using non-compartmental methods. The area under the serum concentration-time curve from time zero to infinity (AUC) was calculated using the linear trapezoidal rule. The terminal serum half-life was calculated by regression of the terminal portion of the concentration-time curve. […] Sera were tested at a 1:10 dilution initially, and positive samples were serially diluted for titer analysis.
CCR5^+ and CD4^+ lymphocytes were measured by flow cytometry. […] CTC5-PE data were used to determine the absolute number of circulating CCR5^+ lymphocytes pre- and post-treatment. RANTES was measured in platelet-depleted plasma using a validated ELISA.

[4] = test system: CCR5+ and CD4+ lymphocytes; format: in vivo, human
Procedure: CCR5^+ and CD4^+ lymphocytes were measured by flow cytometry.

[5] = test system: HIV-1 isolates of study subjects; test: PhenoSense HIV Entry assay on viruses of Phase 1b subjects; format: cell-based
Procedure: Plasma HIV-1 RNA levels were determined with the Cobas Amplicor HIV-1 Monitor Test (Version 1.5; Roche Diagnostics, Branchburg, N.J.). Samples <400 copies/mL were re-analyzed with the Ultrasensitive Monitor Method. Co-receptor tropism was determined at screening and Days 1, 8, 29 and 59 (Trofile™ assay, Monogram Biosciences, Inc., South San Francisco, Calif.). Viral susceptibility was determined on Days 1 and 59 with the Phenosense™ HIV Entry assay. […] Maximum percent inhibitions were determined from the plateaus of the inhibition curves. The reference virus was HIV-192HT594, a low-passage dual-tropic isolate. GeneSeq™ (Monogram Biosciences) was used to assess HIV-1 subtype and genotypic susceptibility to protease and reverse transcriptase inhibitors.

CCR5 lymphocytes = test: Phase 1a clinical study: coating of CCR5 cells by PRO 140; format: in vivo, human; details: single IV 2 mg/kg
Procedure: Individuals were treated in sequential, dose-rising cohorts of 5 subjects (4 active and 1 placebo) each and evaluated for up to 120 days post-treatment. […] Safety assessments consisted of monitoring the following: vital signs (blood pressure, pulse, temperature, etc; hematology (hemoglobin, hematocrit, leukocytes, platelets, etc.); serum chemistries (AST/ALT, alkaline phosphatase, BUN, creatinine, etc.); urinalysis (pH, specific gravity, protein, glucose, leukocytes, etc.); and ECGs (12-lead).
Whole blood specimens were combined separately with the indicated phycoerythrin-labeled anti-CCR5 antibodies or with appropriate isotype-control antibodies. Erythocytes were lysed and leukocytes were stabilized using the ImmunoPrep Reagent System (Beckman Coulter), and the cells were analyzed on a TQ Prep™ flow cytometry workstation (Beckman Coulter). Data were expressed as the percent of CCR5 cells relative to all cells gated in the analysis.

[6] = test system: HIV-1JR-FL envelope-mediated membrane fusion; test: microbe, parasite or virus in culture; format: cell-based; details: inhibitor alone, experiment depicted in FIG. 15A; read-out: IC90

B1: PRO 140: humanized IgG4,κ anti-CCR5 mAb, humanized version of the murine mAb PA14 (antibody, chains of the INN, looked up, V domains shown)
VH: EVQLVESGGGLVKPGGSLRLSCAASGYTFSNYWIGWVRQAPGKGLEWIGDIYPGGNYIRNNEKFKDKTTLSADTSKNTAYLQMNSLKTEDTAVYYCGSSFGSNYVFAWFTYWGQGTLVTVSS
VL: DIVMTQSPLSLPVTPGEPASISCRSSQRLLSSYGHTYLHWYLQKPGQSPQLLIYEVSNRFSGVPDRFSGSGSGTDFTLKISRVEAEDVGVYYCSQSTHVPLTFGQGTKVEIK
- mean reduction in viral load at day 22 (R5 HIV-1; SC 162 mg weekly): 0.75 log 10
- % subjects with ≥1 log10 drop (R5 HIV-1; SC 162 mg, Days 1, 8, 15): 55%
- Max viral load reduction (mean) (R5 HIV-1; SC 162 mg, Days 1, 8, 15): 0.99 log10
- Max viral load reduction: Range (R5 HIV-1; SC 162 mg, Days 1, 8, 15): −0.23 to −1.92 log10
- Mean duration in days ≥1 log10 drop (R5 HIV-1; SC 162 mg, Days 1, 8, 15): 14 days
- log10 change in HIV-1 RNA: Day 22 Mean (R5 HIV-1; SC 162 mg, Days 1, 8, 15): −0.75 log10
- log10 change in HIV-1 RNA: Day 22 Median (R5 HIV-1; SC 162 mg, Days 1, 8, 15): −0.77; p = 0.0072 log10
- maximum log10 change in HIV-1 RNA: Mean (R5 HIV-1; SC 162 mg, Days 1, 8, 15): −0.99 log10
- maximum log10 change in HIV-1 RNA: Median (R5 HIV-1; SC 162 mg, Days 1, 8, 15): −1.06; p = 0.0093 log10
- mean reduction in viral load at day 22 (R5 HIV-1; SC 324 mg bi-weekly): 1.20 log 10
- mean reduction in viral load at day 22 (R5 HIV-1; SC 324 mg weekly): 1.51 log 10
- % subjects with ≥1 log10 drop (R5 HIV-1; SC 324 mg, Days 1, 8, 15): 73%
- Max viral load reduction (mean) (R5 HIV-1; SC 324 mg, Days 1, 8, 15): 1.65 log10
- Max viral load reduction: Range (R5 HIV-1; SC 324 mg, Days 1, 8, 15): −0.76 to −2.50 log10
- Mean duration in days ≥1 log10 drop (R5 HIV-1; SC 324 mg, Days 1, 8, 15): 20 days
- log10 change in HIV-1 RNA: Day 22 Mean (R5 HIV-1; SC 324 mg, Days 1, 8, 15): −1.51 log10
- log10 change in HIV-1 RNA: Day 22 Median (R5 HIV-1; SC 324 mg, Days 1, 8, 15): −1.50; p < 0.0001 log10
- maximum log10 change in HIV-1 RNA: Mean (R5 HIV-1; SC 324 mg, Days 1, 8, 15): −1.65 log10
- maximum log10 change in HIV-1 RNA: Median (R5 HIV-1; SC 324 mg, Days 1, 8, 15): −1.74; p < 0.0001 log10
- % subjects with ≥1 log10 drop (R5 HIV-1; SC 324 mg, Days 1, 15): 67%
- Max viral load reduction (mean) (R5 HIV-1; SC 324 mg, Days 1, 15): 1.37 log10
- Max viral load reduction: Range (R5 HIV-1; SC 324 mg, Days 1, 15): −0.35 to −3.53 log10
- Mean duration in days ≥1 log10 drop (R5 HIV-1; SC 324 mg, Days 1, 15): 18 days
- log10 change in HIV-1 RNA: Day 22 Mean (R5 HIV-1; SC 324 mg, Days 1, 15): −1.20 log10
- log10 change in HIV-1 RNA: Day 22 Median (R5 HIV-1; SC 324 mg, Days 1, 15): −1.03; p < 0.0001 log10
- maximum log10 change in HIV-1 RNA: Mean (R5 HIV-1; SC 324 mg, Days 1, 15): −1.37 log10
- maximum log10 change in HIV-1 RNA: Median (R5 HIV-1; SC 324 mg, Days 1, 15): −1.16; p = 0.0001 log10
- continuation of suppression following the last dose (R5 HIV-1; SC 324 mg, days 1, 8 and 15): 7 days
- administration site reactions [1]: mild in intensity and resolved within one to two days
- drug-related serious adverse events [1]: no drug-related serious adverse events
- tolerability [1]: generally well tolerated compared to placebo
- time of peak concentrations post-infusion [2]: 30 to 60 min
- Peak serum concentration (average) ([2]; 0.5 mg/kg): 13 µg/mL
- mean time to last observation (tlast) ([2]; 0.5 mg/kg): 6.1 days
- volume of distribution (average) ([2]; 0.5 mg/kg): 8.4 L
- Peak serum concentration (average) ([2]; 2 mg/kg): 61 µg/mL
- mean time to last observation (tlast) ([2]; 2 mg/kg): 18.2 days
- volume of distribution (average) ([2]; 2 mg/kg): 13.8 L
- Peak serum concentration (average) ([2]; 5 mg/kg): 173 µg/mL
- mean time to last observation (tlast) ([2]; 5 mg/kg): 18.9 days
- volume of distribution (average) ([2]; 5 mg/kg): 7.1 L
- serious adverse events / dose-limiting toxicity ([3]; human, in vivo): No drug-related serious adverse events or dose-limiting toxicity was reported
- effect on QTc intervals / electrocardiogram ([3]; single IV 0.5, 2 and 5 mg/kg): no clinically relevant drug-related effect on QTc intervals
- duration of maximal masking or coating of CCR5 ([4]; 0.5 mg/kg): 1 week
- average increase in CD4+ lymphocytes ([4]; 5 mg/kg, Day 8): 129 cells/mm^3
- mean change in CD4+ cells over baseline ([4]; 5 mg/kg, Day 8): +129 cells/μL
- mean change in CD4+ cells over baseline ([4]; 5 mg/kg, Day 15): +96 cells/μL
- mean change in CD4+ cells over baseline ([4]; 5 mg/kg, Day 22): +83 cells/μL
- mean change in CD4+ cells over baseline ([4]; 5 mg/kg, Days 29 and 59): < +10 cells/μL
- change in CD4+ cells (in words) ([4]; 0.5 and 2 mg/kg groups): No significant change
- duration of maximal (high-level) coating of CCR5 ([4]; 2 and 5 mg/kg (higher dose levels)): 2 weeks
- duration of significant (p<0.05) coating of CCR5+ lymphocytes ([4]; all PRO 140 treatment groups): 2-4 weeks
- depletion of CCR5+ cells ([4]; human, in vivo): no depletion of CCR5^+ cells
- change in viral susceptibility, baseline to day 59 (in words) ([5]; IC50 or Fold Change): No change from baseline to day 59
- Mean Maximum Percent Inhibition (MPI) ([5]; baseline): 99% and 98.9±1.5%
- variation of baseline rIC50 values across the 39 subjects ([5]; baseline): 6.2 fold
- Mean rIC50 (IC50 test isolate / IC50 reference virus) ([5]; baseline, viruses of PRO 140-treated subjects): 2.0 (range: 0.83-5.1)
- Mean Maximum Percent Inhibition (MPI) ([5]; post-treatment (end of study)): 99% and 99.0±1.0%
- coating of CCR5 lymphocytes (in words) (CCR5 lymphocytes): effectively coats CCR5 lymphocytes without cellular depletion for two weeks
- IC90 [6]: 111 nM
